No end group written: not given here.
What was measured:
HLA-DRB1*0802 (DR8w2) = biological target: T1, HLA-DRB1*0802 (DR8w2) (Homo sapiens, UniProt P01903+P01911, A100R/A103L/A169T/F76Y/H45Y/I96F/K41T/L162R/M171V/P40S/Q125H/Q178H/Q39Y/Q99D/R218S/R42G/S66Y/V115G/W38E); assay: biochemical; format: binding
T1 construct: endogenous in cells

HLA-DRB1*0701 (DR7) = biological target: T2, HLA-DRB1*0701 (DR7) (Homo sapiens, UniProt P01903+P01911, A100R/A102G/A103Q/D57E/D86V/E43K/F76Y/K127E/L162R/M171V/P40G/Q125H/Q99D/R33Q/R42Y/R54Q/S133A/S66F/T210M/V115G/Y107V/Y59L/Y89S); assay: biochemical; format: binding
T2 construct: endogenous in cells; host or cells: Pitout

HLA-DRB1*1302 (DR6w19) = HLA-DRB1*1302 (DR6w19) (Homo sapiens, UniProt P01903+P01911, A100E/A169T/K41T/L162R/M171V/P40S/Q125H/Q178H/Q39Y/Q99D/R42S/S66N/T262R/V115G/W38E/Y61H); assay: purified HLA class II binding assay, DRB1*1302 (DR6w19); conditions: for DR6w19 binding information: Table XXb, HIV DR 3a motif peptides
HLA-A*0201 = HLA-A*0201 (Homo sapiens, UniProt P04439, D140Y/D185E/D98H/E176V/E277Q/G131W/G231S/I119V/I121R/I166T/I218V/L300P/L318F/N151K/N90K/P208A/P217A/Q86G/Q94H/R138H/R169H/T345S); assay: purified HLA class I binding assay, A*0201; conditions: for A*0201 (binding information) / A*0201 binding (HIV A02 Super Motif Peptides with Binding Information): unit not given; for A*0201 binding (HIV A02 Super Motif Peptides with Binding Information): purified HLA-A*0201
HLA-DRB1*0301 (DR3) = biological target: T3, HLA-DRB1*0301 (DR3) (Homo sapiens, UniProt P01903+P01911, A100K/A102G/A103R/A169T/F55Y/I96L/K41T/L162R/M171V/P40S/Q125H/Q178H/Q39Y/R42S/S66N/T106N/T262R/W38E/Y61H); assay: purified HLA class II binding assay, DRB1*0301 (DR3), pH 4.5; conditions: for DR3 binding information: Table XXb, HIV DR 3a motif peptides
T3 construct: endogenous in cells; host or cells: MAT

HLA-A*0206 = HLA-A*0206 (Homo sapiens, UniProt P04439, D140Y/D185E/D98H/E176V/E277Q/F33Y/G131W/G231S/I119V/I121R/I166T/I218V/L300P/L318F/N151K/N90K/P208A/P217A/Q86G/Q94H/R138H/R169H/T345S); assay: purified HLA class I binding assay, A*0206
HLA-A*0202 = HLA-A*0202 (Homo sapiens, UniProt P04439, D140Y/D185E/D98H/E176V/E277Q/G131W/G231S/I119L/I121R/I166T/I218V/L180W/L300P/L318F/N151K/N90K/P208A/P217A/Q67R/Q86G/Q94H/R138H/R169H/T345S); assay: purified HLA class I binding assay, A*0202
HLA-A*0203 = HLA-A*0203 (Homo sapiens, UniProt P04439, A173T/D140Y/D185E/D98H/E277Q/G131W/G231S/I119V/I121R/I166T/I218V/L180W/L300P/L318F/N151K/N90K/P208A/P217A/Q86G/Q94H/R138H/R169H/T345S); assay: purified HLA class I binding assay, A*0203
HLA-A*0301 = biological target: T4, HLA-A*0301 (Homo sapiens, UniProt P04439); assay: purified HLA class I binding assay, A*0301; conditions: HIV A03 motif peptides, Table XVI; binding value to purified HLA-A*0301, unit not given
T4 construct: endogenous in cells; host or cells: GM3107

HLA-A*6802 = HLA-A*6802 (Homo sapiens, UniProt P04439, A269V/D140Y/D185E/E176V/E277Q/E87N/F33Y/G231S/I121R/I166T/I218V/L180W/L300P/L318F/N151K/P208A/P217A/Q86R/R138H/R169H/S129P/T345S/V36M); assay: purified HLA class I binding assay, A*6802
[1] = HIV A02 super motif peptides, Table VIII
[2] = HIV A02 Super Motif Peptides with Binding Information, Table VIII

T3 sequence (P01903 26-254 partner, other chains not shown): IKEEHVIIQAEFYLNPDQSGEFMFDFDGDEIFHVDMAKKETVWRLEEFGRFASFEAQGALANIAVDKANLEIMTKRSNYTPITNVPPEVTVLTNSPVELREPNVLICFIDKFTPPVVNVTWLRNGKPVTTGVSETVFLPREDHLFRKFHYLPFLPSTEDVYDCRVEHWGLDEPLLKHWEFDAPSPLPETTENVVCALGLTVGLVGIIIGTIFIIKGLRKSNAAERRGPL

IKQEFGIPY
DR8w2 binding information (HLA-DRB1*0802 (DR8w2)): −0.0009 | DR7 binding information (HLA-DRB1*0701 (DR7)): −0.0014 | DR6w19 binding information (HLA-DRB1*1302 (DR6w19)): 0.0123

ILRQRKTDR
DR8w2 binding information (HLA-DRB1*0802 (DR8w2)): 0.0270 | DR7 binding information (HLA-DRB1*0701 (DR7)): −0.0014 | DRw619 binding information (HLA-DRB1*1302 (DR6w19); Table XXd, HIV DR 3b motif peptides): 0.0016

IVTDSQYAL
DR8w2 binding information (HLA-DRB1*0802 (DR8w2)): −0.0009 | A*0201 (binding information) (HLA-A*0201; [1]): 0.0024 | DR7 binding information (HLA-DRB1*0701 (DR7)): −0.0014 | DR6w19 binding information (HLA-DRB1*1302 (DR6w19)): 0.0108

KCQLKOEAMHGQVDC (KCQLKGEAMHGQVDC; HUMAN IMMUNO… VIRUS)
DR3 binding information (HLA-DRB1*0301 (DR3)): −0.0017

KLNWASQIYA [25.0161]
IC50 (HLA-A*0206): 6170 nM | IC50 (HLA-A*0202): 3910 nM | IC50 (HLA-A*0203): 400 nM

LLWKGEGAVV [1069.33]
IC50 (HLA-A*0206): 771 nM | IC50 (HLA-A*0202): 632 nM | IC50 (HLA-A*0203): 25 nM

LVEICTEMEKECKIS
DR3 binding information (HLA-DRB1*0301 (DR3)): −0.0017

MLNTVGGIIQA
A0301 (binding information) (HLA-A*0301): 0.0005 | A*0201 binding (HIV A02 Super Motif Peptides with Binding Information) (HLA-A*0201): 0.0022

MVEQMIIEDI
A*0201 (binding information) (HLA-A*0201; [2]): 0.0002

MVEQMIIEDII
A*0201 (binding information) (HLA-A*0201; [1]): 0.0001

NVWAIIIACV
A*0201 (binding information) (HLA-A*0201; [2]): 0.0002

QMIIEDIISL
A*0201 (binding information) (HLA-A*0201; [2]): 0.0023

STVQCTIIGI
A*0201 (binding information) (HLA-A*0201; [2]): 0.001

VAKEIVASC
DR7 binding information (HLA-DRB1*0701 (DR7)): 0.0015

VIQDNSEIKV
A*0201 binding (HLA-A*0201; HIV A02 supermotif peptides, Table VIII, binding value with unit not given): 0.0013

VIQGNSDIK
DR8w2 binding information (HLA-DRB1*0802 (DR8w2)): −0.0009 | DR7 binding information (HLA-DRB1*0701 (DR7)): −0.0014 | DR6w19 binding information (HLA-DRB1*1302 (DR6w19)): 0.0447

VLAEAMSQV
A*0201 binding (HIV A02 Super Motif Peptides with Binding Information) (HLA-A*0201): 0.1100 | DR7 binding information (HLA-DRB1*0701 (DR7)): 0.0025

VVEEKAFSP
DR7 binding information (HLA-DRB1*0701 (DR7)): 0.0003

WAGIKQEFGIPYNPQ [Peptide 35.0131]
IC50 (HLA-DRB1*0301 (DR3)): 300 nM

WATIIACVPT
A*0201 (binding information) (HLA-A*0201; [2]): 0.0002

WMTNNPPIPV [25.0139]
IC50 (HLA-A*0202): 3070 nM | IC50 (HLA-A*6802): 2220 nM | IC50 (HLA-A*0201): 98 nM | IC50 (HLA-A*0203): 16.9 nM

Source: patent US20050271676A1, “Inducing cellular immune responses to human immunodeficiency virus-1 using peptide and nucleic acid compositions” (Epimmune Inc., priority 1993, published 2005)
